Source: US20220213456

Tested on: T1, OMNI-47 (Peptoniphilus obesi ph1)
T1 sequence: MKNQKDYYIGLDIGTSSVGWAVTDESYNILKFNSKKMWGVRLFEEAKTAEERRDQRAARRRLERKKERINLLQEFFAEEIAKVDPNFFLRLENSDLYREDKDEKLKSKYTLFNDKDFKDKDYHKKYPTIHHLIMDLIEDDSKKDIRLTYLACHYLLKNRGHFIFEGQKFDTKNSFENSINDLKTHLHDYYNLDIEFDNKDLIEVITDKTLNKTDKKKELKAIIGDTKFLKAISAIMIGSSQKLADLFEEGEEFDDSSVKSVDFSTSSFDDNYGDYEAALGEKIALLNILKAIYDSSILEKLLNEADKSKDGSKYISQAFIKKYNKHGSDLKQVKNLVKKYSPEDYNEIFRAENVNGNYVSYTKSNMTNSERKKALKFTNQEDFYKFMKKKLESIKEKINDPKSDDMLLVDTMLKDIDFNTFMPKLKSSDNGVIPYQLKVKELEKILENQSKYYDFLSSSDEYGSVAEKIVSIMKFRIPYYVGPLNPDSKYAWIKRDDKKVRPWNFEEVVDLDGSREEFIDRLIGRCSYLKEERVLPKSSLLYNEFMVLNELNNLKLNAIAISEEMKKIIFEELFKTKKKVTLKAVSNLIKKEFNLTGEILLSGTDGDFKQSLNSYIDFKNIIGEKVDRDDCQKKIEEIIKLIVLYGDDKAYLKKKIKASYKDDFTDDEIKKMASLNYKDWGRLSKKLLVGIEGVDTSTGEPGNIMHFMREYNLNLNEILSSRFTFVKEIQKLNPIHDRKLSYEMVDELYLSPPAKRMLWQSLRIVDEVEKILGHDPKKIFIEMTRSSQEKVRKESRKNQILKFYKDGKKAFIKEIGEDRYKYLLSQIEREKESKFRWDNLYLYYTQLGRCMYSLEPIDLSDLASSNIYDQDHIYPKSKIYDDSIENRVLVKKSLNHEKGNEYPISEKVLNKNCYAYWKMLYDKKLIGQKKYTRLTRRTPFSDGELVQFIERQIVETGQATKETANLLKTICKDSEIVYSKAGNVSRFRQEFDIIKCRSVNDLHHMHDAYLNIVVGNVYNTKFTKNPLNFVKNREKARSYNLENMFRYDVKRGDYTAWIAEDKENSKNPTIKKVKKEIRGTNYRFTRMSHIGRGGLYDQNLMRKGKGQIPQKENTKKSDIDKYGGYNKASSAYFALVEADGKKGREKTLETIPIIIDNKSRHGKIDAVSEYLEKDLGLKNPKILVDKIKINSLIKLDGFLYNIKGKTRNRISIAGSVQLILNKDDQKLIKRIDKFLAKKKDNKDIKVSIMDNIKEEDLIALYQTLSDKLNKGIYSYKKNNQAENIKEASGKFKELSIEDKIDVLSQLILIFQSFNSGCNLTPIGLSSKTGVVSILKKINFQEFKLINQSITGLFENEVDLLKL
Assay: cleavage_in_vitro
Details: TXTL; PAM NVYR (specific NRTA); V1, V2 tested

Sequence: GGAAGAGCAGAGCCUUGGUCUCGUUUGAGAGUUAUGGAAACAUGAUGAGUUCAAAUAAAAAUUUAUUCAAAUCGCCCAUUAUGGGCCGCAGAUGUUCUGCAUUAUAUGCUUGCAAGUUGCAAGCUUUUUUU / GGAAGAGCAGAGCCTTGGTCTCNNNNNNNN / NNNNNNNNGAGACCAAGGCTCTGCTCTTCC [OMNI-47 T2 sgRNA V1 ; pbPOS T2 protospacer 8N PAM library]
- activity (1-depletion score): 0.98
